According to US20120100536A1 (UNIVERSITY OF TOKYO, published 2012):

Molecular target: T1, α1-antitrypsin (UniProt P01009 25-418)
T1 construct: Co-expressed with HTRA1-V5 in HEK293 cells; Complex detected in serum-free conditioned medium by anti-V5 immunoblot; also called al-antitrypsin
Assay: co-expression in HEK293, anti-V5 immunoblot of conditioned medium
Experimental: To assay formation of a stable complex with α1-antitrypsin, we transiently expressed α1-antitrypsin and either wild-type or mutated HTRA1 cDNAs with a VS tag at the C-terminus in HEK293 cells. These cells were grown in serum-free medium, and conditioned media were then immunoblotted with anti-V5 antibody.¹⁴

T1 sequence (P01009 25-418 limits assumed): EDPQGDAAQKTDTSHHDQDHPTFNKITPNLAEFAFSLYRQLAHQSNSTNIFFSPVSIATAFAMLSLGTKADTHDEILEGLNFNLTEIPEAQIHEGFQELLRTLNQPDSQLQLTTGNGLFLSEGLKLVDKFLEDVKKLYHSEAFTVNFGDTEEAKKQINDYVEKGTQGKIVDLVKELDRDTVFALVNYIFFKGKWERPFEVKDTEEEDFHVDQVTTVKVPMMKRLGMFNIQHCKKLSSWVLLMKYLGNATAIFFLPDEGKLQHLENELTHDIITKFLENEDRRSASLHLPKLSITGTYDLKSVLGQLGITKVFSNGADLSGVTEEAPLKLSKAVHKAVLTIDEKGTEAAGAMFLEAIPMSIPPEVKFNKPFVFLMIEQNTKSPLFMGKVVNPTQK

binding result: no binding
B1: HTRA1 R302X with a V5 tag at the C-terminus (enzyme)
chain: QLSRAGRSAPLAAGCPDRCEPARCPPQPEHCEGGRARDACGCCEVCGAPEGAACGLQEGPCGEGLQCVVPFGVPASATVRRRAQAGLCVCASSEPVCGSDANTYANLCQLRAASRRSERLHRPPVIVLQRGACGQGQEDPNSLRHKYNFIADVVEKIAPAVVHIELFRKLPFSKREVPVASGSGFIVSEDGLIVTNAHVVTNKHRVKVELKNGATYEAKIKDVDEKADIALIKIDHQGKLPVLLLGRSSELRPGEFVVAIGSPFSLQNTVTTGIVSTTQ
notes: The range 1-301 is derived from that statement; not shown: C-terminal V5 tag
